The source of these data is patent US7041801 (VANDERBILT UNIVERSITY, dated 2006).

This assay addresses T1, integrin αVβ3 expressed by human umbilical vein endothelial cells (HUVEC) (human, UniProt P06756 31-1048; P05106 27-788).
T1 construct: whole, on cells; also called integrin alpha V beta 3
In words: binding to HUVEC; the receptor on HUVEC was identified as αVβ3.

T1 sequence (P06756 31-1048, chain 1 of 2): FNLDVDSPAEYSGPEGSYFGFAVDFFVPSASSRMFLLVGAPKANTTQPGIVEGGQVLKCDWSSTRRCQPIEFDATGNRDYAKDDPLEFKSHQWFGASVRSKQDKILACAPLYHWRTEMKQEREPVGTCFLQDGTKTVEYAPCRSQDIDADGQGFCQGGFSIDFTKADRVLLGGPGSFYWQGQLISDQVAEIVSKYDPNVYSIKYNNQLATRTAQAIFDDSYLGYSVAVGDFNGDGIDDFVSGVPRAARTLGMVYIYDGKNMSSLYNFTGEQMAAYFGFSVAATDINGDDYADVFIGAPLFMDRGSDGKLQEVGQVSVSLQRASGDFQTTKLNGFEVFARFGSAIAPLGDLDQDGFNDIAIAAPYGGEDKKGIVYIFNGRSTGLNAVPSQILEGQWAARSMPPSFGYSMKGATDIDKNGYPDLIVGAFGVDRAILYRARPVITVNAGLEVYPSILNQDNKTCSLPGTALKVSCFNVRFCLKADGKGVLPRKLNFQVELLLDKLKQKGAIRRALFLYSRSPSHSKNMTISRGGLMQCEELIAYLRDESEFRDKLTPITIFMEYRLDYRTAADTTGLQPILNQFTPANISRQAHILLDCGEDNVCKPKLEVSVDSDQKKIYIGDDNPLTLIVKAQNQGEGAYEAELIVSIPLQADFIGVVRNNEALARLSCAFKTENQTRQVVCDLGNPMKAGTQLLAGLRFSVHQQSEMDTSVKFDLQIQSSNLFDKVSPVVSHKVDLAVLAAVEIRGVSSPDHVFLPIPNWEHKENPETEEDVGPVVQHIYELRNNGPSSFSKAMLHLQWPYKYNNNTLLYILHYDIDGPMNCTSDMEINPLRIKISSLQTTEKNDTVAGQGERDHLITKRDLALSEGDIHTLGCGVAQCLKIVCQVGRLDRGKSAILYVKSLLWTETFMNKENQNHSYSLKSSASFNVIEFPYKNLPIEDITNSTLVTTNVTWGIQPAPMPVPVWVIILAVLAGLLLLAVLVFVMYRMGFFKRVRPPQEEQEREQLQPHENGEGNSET
T1 sequence (P05106 27-788, chain 2 of 2): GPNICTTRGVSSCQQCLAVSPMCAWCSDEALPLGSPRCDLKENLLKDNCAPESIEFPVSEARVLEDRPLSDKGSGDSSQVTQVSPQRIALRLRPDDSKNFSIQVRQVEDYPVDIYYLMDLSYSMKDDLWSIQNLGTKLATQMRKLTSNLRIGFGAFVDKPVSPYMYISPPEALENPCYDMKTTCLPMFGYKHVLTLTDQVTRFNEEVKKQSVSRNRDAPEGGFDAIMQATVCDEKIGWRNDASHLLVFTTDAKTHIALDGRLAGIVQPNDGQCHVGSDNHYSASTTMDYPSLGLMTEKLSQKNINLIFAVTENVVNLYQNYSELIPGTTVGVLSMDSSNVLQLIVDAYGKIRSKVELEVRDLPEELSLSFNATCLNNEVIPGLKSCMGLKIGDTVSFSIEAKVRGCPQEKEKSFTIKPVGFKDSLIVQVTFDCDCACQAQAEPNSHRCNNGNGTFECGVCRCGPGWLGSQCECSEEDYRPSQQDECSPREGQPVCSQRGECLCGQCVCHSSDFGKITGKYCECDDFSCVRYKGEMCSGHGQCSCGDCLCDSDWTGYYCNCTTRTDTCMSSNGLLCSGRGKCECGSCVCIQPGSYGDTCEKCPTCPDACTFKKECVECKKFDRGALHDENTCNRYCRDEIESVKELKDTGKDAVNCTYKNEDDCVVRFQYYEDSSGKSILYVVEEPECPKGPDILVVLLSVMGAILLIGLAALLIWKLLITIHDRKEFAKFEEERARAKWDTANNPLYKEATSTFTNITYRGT
Description: Human umbilical vein endothelial cells (HUVEC) (Clonetics Inc., San Diego, Calif.) were grown as indicated by the supplier in endothelial growth media supplemented with 10 ng/ml human recombinant epidermal growth factor, 1 μg/ml hydrocortisone, 50 μg/ml gentamicin, 12 μg/ml bovine brain extract and 2% FBS. Cells were grown at: 37° C./5% CO_2 to 70% confluency before use in the binding assay. […] The plates were washed with PBS and blocked for 30 min with a solution of heat treated (95° C. for 5 min) PBS containing 3% BSA. HUVEC cells were harvested by trypsinization and resuspended in an adhesion buffer (Hanks balanced salt solution pH 7.4 containing 10 mM Hepes, 2.2 mM MgCl_2, 0.2 mM MnCl_2 and 1% BSA). Cells (10^4/100 μl) were added to each well in the presence or absence of the indicated antagonists or controls at varying concentrations. […] Cells were incubated at 37° C./5% CO_2 for 60–90 min and wells were washed until no cells remained in the BSA control. To count remaining cells, 100 μl of endothelial media was added to each well. Cells number was determined by the Promega Cell titer AQ as indicated by the manufacturer.

B1: murine Del-1 (major form) expressed by del-1 transfected yolk sac YS-B cells (ligand)
chain: DICNPNPCENGGICLSGLADDSFSCECPEGFAGPNCSSVVEVASDEEKPTSAGPCIPNPCHNGGTCEISEAYRGDTFIGYVCKCPRGFNGIHCQHNINECEAEPCRNGGICTDLVANYSCECPGEFMGRNCQYKCSGHLGIEGGIISNQQITASSNHRALFGLQKWYPYYARLNKKGLINAWTAAENDRWPWIQINLQRKMRVTGVITQGAKRIGSPEYIKSYKIAYSNDGKTWAMYKVKGTNEEMVFRGNVDNNTPYANSFTPPIKAQYVRLYPQICRRHCTLRMELLGCELSGCSEPLGMKSGHIQDYQITASSVFRTLNMDMFTWEPRKARLDKQGKVNAWTSGHNDQSQWLQVDLLVPTKVTGIITQGAKDFGHVQFVGSYKLAYSNDGEHWMVHQDEKQRKDKVFQGNFDNDTHRKNVIDPPIYARFIRILPWSWYGRITLRSELLGCAEEE
notes: The protein is found in cell lysates, on the cell membrane and in the extracellular matrix of the transfectants (52 kDa band); also called del-1 transfectants; full-length Del-1 protein
Turning to B1, the binding result is “binds”.
